Test results from US5679770A, “Polypeptide, DNA fragment encoding the same, drug composition containing the same and process for producing the same” (Mochida Pharmaceutical Co., Ltd., priority 1991, dated 1997).
Where two headings read alike, the source gives them in different places. Values belong to the molecule of their own block, whether it stands above or below them.

Experiments:
[1] = target: human FXa (American Diagnostica Inc.) (human) (UniProt P00742)
[2] = target: activated blood coagulation factor X (FXa) (Homo sapiens, UniProt P00742); settings: background statement; cited from earlier work
[3] = target: human FXa (American Diagnostica Inc.) (human) (UniProt P00742); remark: listed apart in the source
[4] = target: human FXa (American Diagnostica Inc.) (human) (UniProt P00742); remark: listed apart in the source
[5] = target: human FXa (American Diagnostica Inc.) (human) (UniProt P00742); remark: listed apart in the source
[6] = target: human FXa (American Diagnostica Inc.) (human) (UniProt P00742); remark: listed apart in the source

Sequence of human FXa (American Diagnostica Inc.) (human) (P00742 41-488 limits assumed): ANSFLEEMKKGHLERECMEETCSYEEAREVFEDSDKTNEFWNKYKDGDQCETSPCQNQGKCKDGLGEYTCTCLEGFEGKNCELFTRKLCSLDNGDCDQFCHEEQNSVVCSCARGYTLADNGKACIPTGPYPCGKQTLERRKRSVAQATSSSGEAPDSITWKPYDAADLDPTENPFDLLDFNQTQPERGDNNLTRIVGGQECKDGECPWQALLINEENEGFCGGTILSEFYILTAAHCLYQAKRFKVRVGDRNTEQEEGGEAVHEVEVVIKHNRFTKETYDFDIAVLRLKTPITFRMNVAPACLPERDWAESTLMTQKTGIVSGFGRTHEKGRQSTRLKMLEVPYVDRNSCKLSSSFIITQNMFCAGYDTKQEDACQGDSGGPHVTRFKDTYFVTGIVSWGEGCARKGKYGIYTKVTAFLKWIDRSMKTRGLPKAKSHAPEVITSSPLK
Sequence of activated blood coagulation factor X (FXa) (P00742 235-488 limits assumed): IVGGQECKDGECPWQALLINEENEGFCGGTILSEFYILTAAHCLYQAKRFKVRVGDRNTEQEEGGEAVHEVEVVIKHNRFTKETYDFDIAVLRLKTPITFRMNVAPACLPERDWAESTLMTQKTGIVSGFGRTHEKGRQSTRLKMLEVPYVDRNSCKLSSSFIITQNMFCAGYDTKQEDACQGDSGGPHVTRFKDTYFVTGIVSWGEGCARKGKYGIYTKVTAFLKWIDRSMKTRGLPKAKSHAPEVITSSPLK
Sequence of activated blood coagulation factor X (FXa) (P00742 41-179 partner limits assumed): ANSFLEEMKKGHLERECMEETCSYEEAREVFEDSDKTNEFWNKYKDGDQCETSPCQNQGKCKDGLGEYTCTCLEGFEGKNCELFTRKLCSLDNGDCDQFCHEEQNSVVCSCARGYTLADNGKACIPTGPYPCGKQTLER

human FXa-inhibiting activity (substrate S-2222, residual FXa activity) (times higher than polypeptide TN70) [1]: 5
B1: polypeptide Q19K (peptide)
chain: DDAACNLPIVRGPCRAFIKLWAFDAVKGKCVLFPYGGCQGNGNKFYSEK

B2: urinary trypsin inhibitor (protein, UniProt P02760 206-352, looked up)
Inter-alpha-trypsin inhibitor …: AVLPQEEEGSGGGQLVTEVTKKEDSCQLGYSAGPCMGMTSRYFYNGTSMACETFQYGGCMGNGNNFVTEKECLQTCRTVAACNLPIVRGPCRAFIQLWAFDAVKGKCVLFPYGGCQGNGNKFYSEKECREYCGVPGDGDEELLRFSN
modifications: Inter-alpha-trypsin inhibitor light chain
FXa-inhibiting activity [2]: hardly show such an activity

B3: HI-30: Bikunins (HI-30), natural protease inhibitor (protein, UniProt P02760 206-352, looked up)
Inter-alpha-trypsin inhibitor …: AVLPQEEEGSGGGQLVTEVTKKEDSCQLGYSAGPCMGMTSRYFYNGTSMACETFQYGGCMGNGNNFVTEKECLQTCRTVAACNLPIVRGPCRAFIQLWAFDAVKGKCVLFPYGGCQGNGNKFYSEKECREYCGVPGDGDEELLRFSN
modifications: Inter-alpha-trypsin inhibitor light chain
FXa-inhibiting activity [2]: hardly show such an activity

human FXa-inhibiting activity (substrate S-2222, residual FXa activity) (times higher than polypeptide AN68) [3]: 6
B4: polypeptide Q19R (peptide)
chain: AACNLPIVRGPCRAFIRLWAFDAVKGKCVLFPYGGCQGNGNKFYSEK

human FXa-inhibiting activity (substrate S-2222, residual FXa activity) (times higher than polypeptide AN68) [4]: 3
B5: polypeptide R11E/Y46E (peptide)
chain: AACNLPIVEGPCRAFIQLWAFDAVKGKCVLFPYGGCQGNGNKFESEK

human FXa-inhibiting activity (substrate S-2222, residual FXa activity) (times higher than polypeptide AN68) [5]: 10
B6: polypeptide Q19K/Y46E (peptide)
chain: AACNLPIVRGPCRAFIKLWAFDAVKGKCVLFPYGGCQGNGNKFESEK

human FXa-inhibiting activity (substrate S-2222, residual FXa activity) (times higher than polypeptide AN68) [6]: 10
B7: polypeptide Q19R/Y46E (peptide)
chain: AACNLPIVRGPCRAFIRLWAFDAVKGKCVLFPYGGCQGNGNKFESEK
